# ± gives the standard error. For some assays here: Variants at the floor of the assay were thinned out.
# B1: glmS ribozyme (parent)
# chain: AUAAAAGCGCCAGAACUACAGAAAUGUAGUUGACGAGGAGGAGGUUUAUCGAAUUUUCGGCGGAUGCCUCCAAA
# Tests used:
# Settings in all cases: with glucosamine-6-phosphate
# [1] = variants of: B1; experiment: kcat; higher = faster cleavage; RNA array
# Outline: (§1)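 Glucosamine-6-phosphate, from 40 μM to 10 mM in HEPES/KCl/Mg(OAc)2 buffer, was flowed over sequenced MiSeq chips carrying barcoded ribozyme variants transcribed in situ by E. coli RNA polymerase. A hybridised Cy3 probe tracked the variants at 37 °C as tiles were imaged over ~14 h. kobs, kcat and KM were obtained by fitting normalised per-tile medians to exponential decays and then applying weighted Michaelis–Menten fits across concentrations.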
# [2] = variants of: B1; experiment: KM; higher = weaker cofactor use; RNA array
# Outline: as §1
# [3] = variants of: B1; experiment: self-cleavage kobs at 640 uM GlcN6P; higher = faster cleavage; RNA array
# Outline: as §1
# [4] = variants of: B1; experiment: self-cleavage kobs at 2500 uM GlcN6P; higher = faster cleavage; RNA array
# Outline: as §1
# [5] = variants of: B1; experiment: self-cleavage kobs at 10000 uM GlcN6P; higher = faster cleavage; RNA array
# Outline: as §1
# [6] = variants of: B1; experiment: self-cleavage kobs at 40 uM GlcN6P; higher = faster cleavage; RNA array
# Outline: as §1
# [7] = variants of: B1; experiment: self-cleavage kobs at 160 uM GlcN6P; higher = faster cleavage; RNA array
# Outline: as §1
variant,measurement,setting,value
U45C U65G,kcat,[1],0.000191 ± 3.7e-05 s⁻¹
same,KM,[2],1810 ± 840 µM
same,self-cleavage kobs at 640 uM GlcN6P,[3],4.57e-05 ± 9.8e-06 s⁻¹
same,self-cleavage kobs at 2500 uM GlcN6P,[4],0.000188 ± 4e-05 s⁻¹
same,self-cleavage kobs at 10000 uM GlcN6P,[5],0.000154 ± 2e-05 s⁻¹
G40A A64G,kcat,[1],0.00353 ± 0.0011 s⁻¹
same,KM,[2],3100 ± 1400 µM
same,self-cleavage kobs at 40 uM GlcN6P,[6],7.68e-05 ± 1.3e-05 s⁻¹
same,self-cleavage kobs at 160 uM GlcN6P,[7],0.000131 ± 3.3e-05 s⁻¹
same,self-cleavage kobs at 640 uM GlcN6P,[3],0.000538 ± 9e-05 s⁻¹
same,self-cleavage kobs at 2500 uM GlcN6P,[4],0.00188 ± 0.00029 s⁻¹
same,self-cleavage kobs at 10000 uM GlcN6P,[5],0.00259 ± 0.00038 s⁻¹
C50A A52C,kcat,[1],< 1e-05 s⁻¹
same,KM,[2],2730 ± 690 µM
same,self-cleavage kobs at 40 uM GlcN6P,[6],< 1e-05 s⁻¹
same,self-cleavage kobs at 160 uM GlcN6P,[7],< 1e-05 s⁻¹
same,self-cleavage kobs at 640 uM GlcN6P,[3],< 1e-05 s⁻¹
U30C A53U,kcat,[1],0.000197 ± 3.1e-05 s⁻¹
same,KM,[2],1290 ± 540 µM
same,self-cleavage kobs at 640 uM GlcN6P,[3],5.5e-05 ± 1e-05 s⁻¹
same,self-cleavage kobs at 2500 uM GlcN6P,[4],0.000158 ± 1.5e-05 s⁻¹
same,self-cleavage kobs at 10000 uM GlcN6P,[5],0.000159 ± 1.8e-05 s⁻¹
A52G C58A,kcat,[1],4.08e-05 ± 7.3e-06 s⁻¹
same,self-cleavage kobs at 2500 uM GlcN6P,[4],4.01e-05 ± 9.9e-06 s⁻¹
same,self-cleavage kobs at 10000 uM GlcN6P,[5],3.55e-05 ± 9.9e-06 s⁻¹
A6G A14C U54G,kcat,[1],3.49e-05 ± 4.1e-06 s⁻¹
same,self-cleavage kobs at 2500 uM GlcN6P,[4],3.32e-05 ± 1.2e-05 s⁻¹
same,self-cleavage kobs at 10000 uM GlcN6P,[5],3.47e-05 ± 1.5e-05 s⁻¹
A12C G29U U47G,kcat,[1],0.00126 ± 0.00043 s⁻¹
same,KM,[2],4280 ± 2100 µM
same,self-cleavage kobs at 640 uM GlcN6P,[3],0.000151 ± 3.1e-05 s⁻¹
same,self-cleavage kobs at 2500 uM GlcN6P,[4],0.000697 ± 0.00018 s⁻¹
same,self-cleavage kobs at 10000 uM GlcN6P,[5],0.000831 ± 0.00019 s⁻¹
A15U U65G,kcat,[1],0.00187 ± 0.00077 s⁻¹
same,self-cleavage kobs at 40 uM GlcN6P,[6],3.19e-05 ± 1.1e-05 s⁻¹
same,self-cleavage kobs at 160 uM GlcN6P,[7],6.21e-05 ± 1e-05 s⁻¹
same,self-cleavage kobs at 640 uM GlcN6P,[3],0.00036 ± 4.5e-05 s⁻¹
same,self-cleavage kobs at 2500 uM GlcN6P,[4],0.00056 ± 0.00017 s⁻¹
same,self-cleavage kobs at 10000 uM GlcN6P,[5],0.00139 ± 0.00025 s⁻¹
U47G U56C A64G,kcat,[1],0.000113 ± 1.2e-05 s⁻¹
same,KM,[2],1500 ± 480 µM
same,self-cleavage kobs at 640 uM GlcN6P,[3],2.82e-05 ± 1.4e-05 s⁻¹
same,self-cleavage kobs at 2500 uM GlcN6P,[4],7.42e-05 ± 1.5e-05 s⁻¹
same,self-cleavage kobs at 10000 uM GlcN6P,[5],9.62e-05 ± 1.7e-05 s⁻¹
C16G U65G,kcat,[1],0.00228 ± 0.0011 s⁻¹
same,self-cleavage kobs at 160 uM GlcN6P,[7],6.11e-05 ± 1.6e-05 s⁻¹
same,self-cleavage kobs at 640 uM GlcN6P,[3],0.000149 ± 6.2e-05 s⁻¹
same,self-cleavage kobs at 2500 uM GlcN6P,[4],0.000455 ± 0.00013 s⁻¹
same,self-cleavage kobs at 10000 uM GlcN6P,[5],0.00143 ± 0.00036 s⁻¹
U54G C70A,kcat,[1],0.000123 ± 2.4e-05 s⁻¹
same,self-cleavage kobs at 40 uM GlcN6P,[6],8.02e-05 ± 1.4e-05 s⁻¹
same,self-cleavage kobs at 160 uM GlcN6P,[7],7.71e-05 ± 1.8e-05 s⁻¹
same,self-cleavage kobs at 640 uM GlcN6P,[3],0.000198 ± 2.9e-05 s⁻¹
same,self-cleavage kobs at 2500 uM GlcN6P,[4],0.000143 ± 2.9e-05 s⁻¹
same,self-cleavage kobs at 10000 uM GlcN6P,[5],0.000109 ± 1.6e-05 s⁻¹
G13U C50G,kcat,[1],4.84e-05 ± 1.3e-05 s⁻¹
same,self-cleavage kobs at 40 uM GlcN6P,[6],4.61e-05 ± 1.2e-05 s⁻¹
same,self-cleavage kobs at 160 uM GlcN6P,[7],8.07e-05 ± 1.7e-05 s⁻¹
same,self-cleavage kobs at 640 uM GlcN6P,[3],6.9e-05 ± 1.6e-05 s⁻¹
same,self-cleavage kobs at 2500 uM GlcN6P,[4],5.61e-05 ± 1.2e-05 s⁻¹
same,self-cleavage kobs at 10000 uM GlcN6P,[5],2.19e-05 ± 1.1e-05 s⁻¹
G40C U55A,kcat,[1],9.7e-05 ± 1.9e-05 s⁻¹
same,self-cleavage kobs at 160 uM GlcN6P,[7],0.000138 ± 6.6e-05 s⁻¹
same,self-cleavage kobs at 640 uM GlcN6P,[3],0.000125 ± 2.3e-05 s⁻¹
same,self-cleavage kobs at 2500 uM GlcN6P,[4],7.26e-05 ± 1.4e-05 s⁻¹
same,self-cleavage kobs at 10000 uM GlcN6P,[5],0.000133 ± 2.8e-05 s⁻¹
U31A G32C,kcat,[1],0.000234 ± 1.1e-05 s⁻¹
same,KM,[2],1950 ± 290 µM
same,self-cleavage kobs at 640 uM GlcN6P,[3],5.55e-05 ± 1.8e-05 s⁻¹
same,self-cleavage kobs at 2500 uM GlcN6P,[4],0.000141 ± 3e-05 s⁻¹
same,self-cleavage kobs at 10000 uM GlcN6P,[5],0.000194 ± 2.1e-05 s⁻¹

# — the supplement of paper PMC7125110
